Results on 83 variants are retold here after the RNAGym collection of RNA variant scans (doi:10.1093/molbev/msab373).

The labels stand for the following.
B1: Azoarcus group I ribozyme (parent)
chain: GUGCCUUGCGCCGGGAAACCACGCAAGGGAUGGUGUCAAAUUCGGCGAAACCUAAGCGCCCGCCCGGGCGUAUGGCAACGCCGAGCCAAGCUUCGGCGCCUGCGCCGAUGAAGGUGUAGAGACUAGACGGCACCCACCUAAGGCAAACGCUAUGGUGAAGGCAUAGUCCAGGGAGUGGCGAAAGUCACACAAACCGG

Variants of B1 are the subject of the data set. Kind of data set: reverse-splicing fitness (ratio to wild type); higher = more active; in vitro selection; Mg2+ level not given. The procedure, abridged: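 An in vitro group I ribozyme library with randomized positions was T7-transcribed and gel-purified. In triplicate, 10 pmol RNA in EPPS pH 7.5 was reacted with 50 pmoles of a 30-nt RNA substrate for 1 h at 37 °C across several added MgCl2 levels (1–48 mM), then stopped with EDTA. Products were reverse transcribed from a substrate-complementary primer, PCR-amplified and sequenced (HiSeq 4000). Fitness is a variant's read proportion after selection over that before, normalised to wild type.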
Consider A111G A120U A145U C150G C169G U176C, for which the reverse-splicing fitness is 0.00268.

Take A111G A120U A145U C150G C169G U176A: the reverse-splicing fitness was 0.00284.

A111G A120U A145U C150G C169G U176G: the reverse-splicing fitness is 0.00203.

Regarding A111G A120U A145G C150U C169A U176C, the reverse-splicing fitness was 0.00357.

A111G A120U A145G C150U C169A U176G: the reverse-splicing fitness worked out at 0.00246.

On to A111G A120U A145G C150U C169A U176A, for which the reverse-splicing fitness came to 0.00469.

On to A111G A120U A145G C150A C169A, for which the reverse-splicing fitness is 0.00596.

Take A111G A120U A145G C150A C169G: the reverse-splicing fitness is 0.0141.

In the case of A111G A120U A145G C150A C169U, the reverse-splicing fitness worked out at 0.0188.

Consider A111G A120U A145C C150A, for which the reverse-splicing fitness is 0.0434.

For the variant A111G A120U A145C C150U, the reverse-splicing fitness worked out at 0.264.

As to A111G A120U A145C C150G, the reverse-splicing fitness came out at 0.116.

Turning to A111G A120U C150A, the reverse-splicing fitness turned out to be 0.112.

Take A111G A120U C150G: the reverse-splicing fitness stood at 0.0688.

On to A111G A120U C150U, for which the reverse-splicing fitness amounted to 0.538.

Consider A111G A120G C150A C169A U176C, for which the reverse-splicing fitness was found to be 0.0244.

For A111G A120G C150A C169A U176G, the reverse-splicing fitness is 0.00486.

For A111G A120G C150A C169A U176A, the reverse-splicing fitness was determined as 0.0205.

For A111G A120U A145C C150G C169A U176C, the reverse-splicing fitness came out at 0.00245.

As for A111G A120U A145C C150G C169A U176G, the reverse-splicing fitness worked out at 0.00216.

In the case of A111G A120U A145C C150G C169A U176A, the reverse-splicing fitness came out at 0.00204.

As to A111G A120G C150A U176A, the reverse-splicing fitness amounted to 0.0188.

A111G A120G C150A U176G: the reverse-splicing fitness turned out to be 0.00663.

For the variant A111G A120G C150A U176C, the reverse-splicing fitness was 0.0301.

On to A111G A120U C150A C169G, for which the reverse-splicing fitness was 0.0107.

In the case of A111G A120U C150A C169U, the reverse-splicing fitness is 0.0125.

With A111G A120U C150A C169A, the reverse-splicing fitness is 0.00359.

In the case of A111G A120U A145C C150A C169G, the reverse-splicing fitness was 0.0049.

A111G A120U A145C C150A C169U: the reverse-splicing fitness is 0.00746.

For the variant A111G A120U A145C C150A C169A, the reverse-splicing fitness was found to be 0.00208.

A111G A120U A145G C169A U176C: the reverse-splicing fitness worked out at 0.00372.

Consider A111G A120U A145G C169A U176G, for which the reverse-splicing fitness came out at 0.0013.

Regarding A111G A120U A145G C169A U176A, the reverse-splicing fitness was determined as 0.00347.

Take A111G A120U A145C C150A C169A U176G: the reverse-splicing fitness was 0.00177.

For the variant A111G A120U A145C C150A C169A U176C, the reverse-splicing fitness amounted to 0.00206.

With A111G A120U A145C C150A C169A U176A, the reverse-splicing fitness came to 0.00282.

Take A111G A120U A145C C150U C169G: the reverse-splicing fitness is 0.0196.

With A111G A120U A145C C150U C169A, the reverse-splicing fitness amounted to 0.0024.

As to A111G A120U A145C C150U C169U, the reverse-splicing fitness was 0.0277.

A111G A120G C150U C169U U176A: the reverse-splicing fitness is 0.0545.

Consider A111G A120G C150U C169U U176C, for which the reverse-splicing fitness was 0.0607.

With A111G A120G C150U C169U U176G, the reverse-splicing fitness came to 0.00845.

With A111G A120U A145G C150U U176G, the reverse-splicing fitness worked out at 0.0427.

With A111G A120U A145G C150U U176C, the reverse-splicing fitness is 0.285.

Take A111G A120U A145G C150U U176A: the reverse-splicing fitness was 0.237.

With A111G A120G C150U C169G, the reverse-splicing fitness stood at 0.177.

With A111G A120G C150U C169A, the reverse-splicing fitness worked out at 0.0914.

As to A111G A120G C150U C169U, the reverse-splicing fitness was 0.142.

Regarding A111G A120U C150A C169U U176G, the reverse-splicing fitness was 0.00282.

Take A111G A120U C150A C169U U176C: the reverse-splicing fitness stood at 0.00598.

Turning to A111G A120U C150A C169U U176A, the reverse-splicing fitness is 0.0063.

Regarding A111G A120U A145C, the reverse-splicing fitness stood at 0.701.

For A111G A120U A145U, the reverse-splicing fitness came to 0.759.

Regarding A111G A120U A145G, the reverse-splicing fitness was 0.667.

Consider A111G A120U A145U C150G C169A, for which the reverse-splicing fitness was determined as 0.00344.

Turning to A111G A120U A145U C150G C169G, the reverse-splicing fitness was 0.0082.

As for A111G A120U A145U C150G C169U, the reverse-splicing fitness amounted to 0.012.

Turning to A111G A120U A145G C150G C169U U176G, the reverse-splicing fitness turned out to be 0.00319.

Regarding A111G A120U A145G C150G C169U U176C, the reverse-splicing fitness worked out at 0.00697.

As to A111G A120U A145G C150G C169U U176A, the reverse-splicing fitness was determined as 0.00497.

Take A111G A120U A145G C150U: the reverse-splicing fitness was 0.611.

A111G A120U A145G C150A: the reverse-splicing fitness is 0.148.

With A111G A120U A145G C150G, the reverse-splicing fitness amounted to 0.0771.

Take A111G A120U A145C C150U C169U U176G: the reverse-splicing fitness is 0.00212.

On to A111G A120U A145C C150U C169U U176A, for which the reverse-splicing fitness is 0.00601.

Regarding A111G A120U A145C C150U C169U U176C, the reverse-splicing fitness came out at 0.00282.

Consider A111G A120G C150G C169A U176C, for which the reverse-splicing fitness was found to be 0.0116.

Turning to A111G A120G C150G C169A U176G, the reverse-splicing fitness came out at 0.00604.

As for A111G A120G C150G C169A U176A, the reverse-splicing fitness turned out to be 0.00862.

For A111G A120G C169G, the reverse-splicing fitness is 0.321.

Consider A111G A120G C169U, for which the reverse-splicing fitness came out at 0.236.

As to A111G A120G C169A, the reverse-splicing fitness was determined as 0.165.

Regarding A111G A120U A145C C150U U176A, the reverse-splicing fitness was determined as 0.0932.

Consider A111G A120U A145C C150U U176C, for which the reverse-splicing fitness is 0.055.

With A111G A120U A145C C150U U176G, the reverse-splicing fitness was found to be 0.0448.

On to A111G A120U C169A U176A, for which the reverse-splicing fitness worked out at 0.0033.

With A111G A120U C169A U176G, the reverse-splicing fitness came to 0.00161.

For the variant A111G A120U C169A U176C, the reverse-splicing fitness is 0.00321.

On to A111G A120U A145G C150G C169A U176A, for which the reverse-splicing fitness was found to be 0.00856.

Regarding A111G A120U A145G C150G C169A U176G, the reverse-splicing fitness was determined as 0.00395.

A111G A120U A145G C150G C169A U176C: the reverse-splicing fitness came to 0.00599.

In the case of A111G A120U A145U C150A C169U U176G, the reverse-splicing fitness was 0.00172.

With A111G A120U A145U C150A C169U U176C, the reverse-splicing fitness is 0.00339.
